Experimental data from the supplement of paper PMC12636428.

The sequences below were run on Saccharomyces cerevisiae (assay: transcriptional activation domain activity (GFP:mCherry ratio, weighted mean of sorted bins, harmonized to initial dataset scale) (arbitrary fluorescence ratio units); higher = stronger transcriptional activation). Settings: beta-estradiol 1 µM; induction time 4 h.
Outline: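 Sorting into 8 bins by GFP:mCherry ratio followed a 4-hour hold at 30 °C after cultures were diluted 1:5 into SC with 1 uM beta-estradiol. The yeast diploids carried a GFP reporter and had barcoded protein tiles, fused to an estradiol-inducible synthetic transcription factor, integrated at URA3. Barcodes were then sequenced, and tiles with under 50 reads were removed. Activation activity is the read-weighted mean of bin median fluorescence, averaged across barcodes and linearly mapped onto the initial dataset scale.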

Point of comparison: “TSSPSGQNASSTSVALVVGSDEKLVKAVGEGLKSKLGIKGGGKGPRWTGKWTG”, “transcriptional activation domain activity” value 33700. Against it:
- VFWRSLFNRVFDFGFDLVLFVFFSLALSLYFVVSHSKSLPFWFMCFFFIPLFN — higher, 78000
- IALCEAVYIWLAKQLYQEFGWKIYKKIGADLIKRRMYRDYHICLMLLKLDLFF — higher, 64200
- MEHFSLFLFRFFFLFFVFLFLRRRGGGFGTGFGFWFLVFGFWFLVFGFWFWLW — higher, 64000
- CDTVAHSAGRRERGRKQAGKRNDKERREGEERGKTGKTKRRGVARAGTGASAS — lower, 14800
- MFCLRSWIPLLFIPANASPGFIFLFFVCTYFLNRPCVYCSILLLILFVTSCYW — higher, 41000
- FIVHTAELHLFRKQYVGQLYRSQKLLGLLARRPHIARLVTRFGMHAMSAPLFY — higher, 57100
- GRGVKAGGGPRDREGGERGRERGEEGGEEGARRKEGDSRKEPAGGERREREEG — lower, 33400
- RCSIIYAGCHCPMWMVLFVPGCLFGLSVALGTLWLVQASDMLFPHTNYILIYI — higher, 46700
- MLRVIVLLIVIDHLLYLPWLYFATYNARLLSCQSSTGRIYIERNCHSHSYGDK — higher, 50700
- MAMGLMCKACLLTPQHFLPLLWPSYPRPFFFFFFFYYSYCCSCCDCISIFGLN — higher, 43400
- VQLSFYRNKIFLTILNYCSGLFVLLFFFYSLFRSVILQNSSLLMLYCACWIYI — higher, 60600
- EGSARGGEAGKKEERQADEKEHKGRARPGRGEKDGGGRGRREEERDRKEQNGG — higher, 34000
- WKATKYLIGLWIQCFRDRGLIGPVGYRGHVHCVVRFCLCLIPKSHWQTIIVVT — higher, 63500
- SQNSNDTSSKGIVDPFVEQNNDITTALLNNELFQGPSLSDEVTDWFGASEDIG — higher, 91000
- SSTDPTVEPDAPGGSEAEEPAKSETKESPAKKKVVEEEEEEEQKKAEPNGSSS — lower, 30700
- MPVVKLMAEPFLFLFLFYLSVLALAFFYFFYFFYFFFLKILPGMMVFSSLGCF — higher, 55500
- APAQPAATGGGLFGSGATGTTGGFGSNTAGGFGTGGGFGAKPAFGATPSTTGG — lower, 15600
- SLHLAGCMLITCIGFIVLACLDVSQHIGAGYFCCFLLCCGGYISSPLLSTWYN — higher, 94700
- TARVSEAKPARGRPSSAKAESPAVEAAPAVKKRGRGRPSKTKPETEEEEEAVP — higher, 39600
- MKIHECTGVVYIGNVLCHKQPQVLLGLMFFMDLTLFFLDSYLWYIICNTIFSV — higher, 68700
- MLWGDTQILVVLLHYILPTYQFPRFYFYYMYLPLRSWLLVDNPFLFSYSALIQ — higher, 63200
- RFNLPICGEIKMYRGWTVIDLVHMVCINTACKISNLKHALRKLSISFTNLVKP — higher, 54700
- TPSSTATTAAPAATSAATPSLFSKPATTSAAPATATAAASTPSGNLFGAKAAA — higher, 47500
- IKDFEAHLFAIILYHLSFFGCRALGVVSMLKCQGQMCDPWSLMYRGLYVFYRL — higher, 35900
- VFIAVLSCVGTCGASYLCISFMPLVCHNSPYYTPLSSLIWSCRAGLRCLYLWI — higher, 55300
- DSDEEDESELETDSESETGGIPIHESLSGAKSEDADKNERTIFIGNITVTAVQ — higher, 46400
- NRKTIGKQDPYCAARLGKEAKKTETDRRGGQTPRWDQELRYTVHDSPDYYQLK — lower, 31200
- FFAFTFILMMACLVSGIGWCLLYFTCMYLLLIYYILSLFFYSPLASCNSFFFF — lower, 27200
- SGQSVVWEAQKLVHKGFLIDAHVVVVFYVMGCFFIYVLARLRCSNPKLIVMQI — higher, 62800
- ALDFGLVVRHTTVQYPVPLRFGLLNGNFSFMPLIINSWNMISYILSIYSLVLL — higher, 64200
- TREMREKVEREREGRRRAREEKEKRGGGGGGGKGKKGRGGKGKGKAVPGAGAG — higher, 49400
- IARPISFFVLGASAAFTTIRALGPSTHPLISVNYFSLWCTFVSLLALLLCPLL — higher, 58700
- RNVYLSRFWYLSFYSGNQLRRDLNVIVGVGKNWNLPSWWAPILRYIAAPILSI — higher, 75600
- AQPKTEAPKKVAKPRAKKGEAAEGEVKKGGRGKKRSAEGEEKAEEKAEDKPAE — lower, 30600
- QAGSTGSSSRKRKKAVTDGEETPSTSEPRRLRRSHEACARCRSKKIKASACDS — lower, 28300
- ERKRERREKKEKEREREQREEREKSKERSGKKNGKDSEKRRERRGEKGSEERR — lower, 32800
- DFDVNEFDPQVLFSTGTRTVEFMDDQNQPSSASAFLSTARPNHYSTHTPTTDV — higher, 75300
- MELVLHCFYLGAIRKPGHTYDSWSSDTPFQLSMIGDSNLLIIWLWLLIPWRSF — higher, 80500
- NSIIPFFRFLGCIVLSGAFYFYIFFYAFLLCLFLIYFFFHGSKLGFFHFIFFP — higher, 40600
- RPSLGCILFILIRYVSIIVMVVSNYGVLSTSFTEKVCERYFMIAPVFKVIQTM — higher, 50600
- SKKKGRKAQKTGSADPAPNESKDRAGATEEAAEGAADEEDEQDEDEDEDEEGE — higher, 37600
- MGVLFFSFLPWSFRLFFSFFFYFGLFFFFEYDFVLFLVFCVLVIGPVWLLAGC — higher, 60200
- GMFDGVYTGLGVKLPVDKLERYSAAEIAIMSWRVVYLYYWISFCILILCFILF — higher, 69900
- TNNWNPVHWDWNIFRQIVNFNWVLLFYFIFLLFSLFFHFIPVSCISIFYYFFS — lower, 25100
- ASIPDPAADDDDAEFGGTGEKKPRKRAPKAASGESKNGKAKAVKTEGGASAAG — lower, 33300
- AAKPKDRIKYWNIVPGDRVRITGDKEGKLLEVAKINKLSNRVYLKGATTKAGS — higher, 44400
- MTNFSVALNVHTQIAYHNAEALRLKCMYNASSLLAKLPPHVLALIFLNHANWF — higher, 36200
- VLYSSLITIFTAFYWNVASTSSVQILALLLPYTHPNIAHASTIRPFLIYALFT — higher, 66700
- AFLCWVAPNNQVANFLGSGFGGMGFLNLSLDWSNISTNGSLFLTPWWTQVVMF — higher, 52500
- ATPAPAPGMSAAPAPAAEPVESTPKAESKPEPKPEPKAEPKAESKPAAKPAAA — lower, 19500
- PFPLLPFPLLPFPLLPSPLPIPLLPIPLLSFPLLPFPFLPFPLLSYPLFHFTV — higher, 44800
- ENSEDALHNSETMDLLGTLSHGNDFALEYNFDFTLLNEIDMLIGGNTNDGLSK — higher, 101000
- VQRYLCQYQPQITLGFMIFTDMIFFFLDTYLCYVLLNTIFSIARSFYIGSSIW — higher, 56700
- MPPHSEIDDIFAAKHSEPAPPPPPQKKKSKKRKRDAAAATVAPAAAPPPAAPA — higher, 46500
- YCGSLGCMILVAGIKLLRLLKHHLTVQRALRSNIGKIKAGMLKVKIIMIVGCV — higher, 66400
- TFFLMRDIFIMEFLAHCDLLTIFVLAQTGEYARDLVKAFFSCNLRLLVVIFLG — higher, 47700
- MEGRVGGDQKGGGFIFVYGSGVLDWGVFFRFIYISLSFFVWGLFLCVSFAFVL — higher, 41200
- SSLSSSSFIKSHPGPDPFQQLSSAEHPNNHSSDDEHSGSQPLPLDSITIGIPP — higher, 53200
- MTEREPDNEQQPRKRIAVACGRCRKRKIRCSGDPGNGEPCTNCRNANAEPCQF — higher, 38700
- MALASPVFFFFYLYFIILLFGVGIYLFTFVMSYHTMVMQIIHVSCYNHRYIPV — higher, 47200
- LALVIDVRFPKHPTMSNYSLVCAVRALLDFVELARYPVHTDATLRLLNDALRV — higher, 51200
- IIQCLVLGKYTKCAPRTIETLLLYLHLKYNQHEDNQMEIWVLLGVIVRLALRM — higher, 44700
- IRWHIREHQLRVLAKFCADRIGDPYVYCPCIIAKGLVLALIRIVSALLEKPAI — higher, 56200
- KDDEKKDRHRSRRDRGDRDKEDERRRRKRRSRSRSNHRHGHERRRDRSRSREG — lower, 17100
- GHWSYFRNSSMILNFFYKNIIGIGVLFWFQIFCGWSTTYVFAYVYLLFWNVFW — higher, 51500
- MGFLFLLCVLVVWVFFRAWFFRFLFSLVFLFWYFFIYFLWPWYGGVGRGLHSC — higher, 36100
- RLGEEKRSKSTEEAPREESEEAESTKKASGKSESAGEEKTKEEGEEGEGKKEG — lower, 30800
- FILSGCTFRLLFCIFGIRVWLDHQLCGNLLVVELYRKIVRSIDAYHHGKGYPT — higher, 61700
- YNVWILFRHLVDLILLNDFVAYSLFGFSWMQFSPNHSTFFHVLRWIGGWSLVG — higher, 69200
- RRRRRHEEGGRGGDRSRGRDGERSSTRHEERRHRSRDRRDDRDRDRGSERRGH — higher, 44500
- FSLAGSNYLGICWNPAVKNCIPYDTYLLWIRCMPFWYLFVFLYDIIPPILIVY — higher, 59800
- EEEDGQSEPDSARAPRKAKSKTRAATDGEDESEARSKPKASRKGRRKVEASDA — lower, 24000
- DMLISFGLDHPSNREDDLDKLCNMTRDVQAIFSQYLKGEESKRSLEDFLSTSN — higher, 67500
- AYNALIFALVVCICTFGCCAYIFVSSLFIHKLYNKFIILAAHIWMIIFWLVDL — higher, 62400
- ISGQEHKDMCRILLGLIIDLPLPSGQVTSRIIRLVHALLDFLYLAQLPSQTTN — higher, 61400
- MGDIKKISCIFFSFIFGLVLFFFVIIITIICILWIWAWDFWACFGSGLGLLVC — higher, 47100
- KYLFQSQRFGGHFFQIQVVLRDIEKYLEEVHQFMLQVNIMVLGFHAMLDKAFQ — higher, 55900
- TRPYEMALKFVNVTDTNELLRMRQFACDICDYAPHLLDNDNISLLIVLLILTR — higher, 45000
- RIVGESASTHAVCVSLPRDVYQASDGEEDLMGSVPQVLPALVCSCTRASSIVH — higher, 68500
- MRKFLFQSFDILYLLIFLSFFFILSLFFFILIIFGSSPFIYFIFYFNHFFFFD — lower, 26900
- QLVIAVLLLHASAMFTKRVEIPQLKLETAGKLFPCVFVNIVGLVFNTLCLRDV — higher, 43300
- TASTGTEARNAETTTRRVRSGIVNRRSHAKSRTGCRTCKRRRIKCDESRPSCR — lower, 22400
